Experimental data published in patent US20090170718.

Biological target: Botulinum neurotoxin type A light chain (BoNT/A-rLc) (UniProt P0DPI1)

AGCAGCACAGAGGTCAGATGNNNNNNNNNNNNNNNNNNNNNNNNNNNNNNNNNNNNNNNNNNNNNNNNNNNNNNNNNNNNCCTATGCGTGCTACCGTGAA [round 1 enriched aptamer pool (M-SELEX)]
Kd: 33 nM
